Data published in paper PMC3237570.

Target: Bbox1 domain of MID1
Test: NMR titration; 1H-15N HSQC at 21°C, aqueous solution; 0.15 mM unlabeled alpha45 added to 0.3 mM 15N-labeled Bbox1 (Bbox1 to alpha45 1:0.5)

- percent of Bbox1 bound to alpha45 (at 1:0.5): 40 to 50%
- stoichiometry N: 1
Substance: alpha45 (45-amino acid region of the C-terminus of alpha4, residues Glu236 to Leu280) (from UniProt P78318 236-280) (domain or fragment)
